Assay results reported in the DeepSol protein solubility set.

Assay: soluble on expression in E. coli; label from the status in PepcDB or PDB records

Row | Sequence | soluble on expression in E. coli
1 | MGSDKIHHHHHHQTAEPPKTVRPDQLAFRDLYKELVEINTTLSVGSCTAASEAMGARLKAAGFPEADVRVVVEPKHPREGNLVAVLRGTDATTKPMLLLAHIDVVEAKREDWTRDPFKLVEENGYFYGRGTSDDKAQAAIWVDSLIRLKQAGFKPKRDIKMALTCGEESEGYNGIEDLLKNHRPLVDAEFALNEGASGLLDEQGKAVMLEVQAGEKVYQDFTLTVTNPGGHSSRPVSPNAIYQLSAALDRIGAYQFPPRFNDATRGYFTQMQARVTPEQAAAMKTLVADVNDPAALALITKDRTWNSMLRTTCVATMVSAGHAPNALPQRATANINCRILPGTPIDEVKAKLTELAADPAVAVTLAHSSKPASPPPPLTPAIMAPIQKNAAKLWPGVPILPVMSTGATDAVHTSAAGIPTYGVTGLFHGPEGTGAHGLNERMRVKSLYEGRDFLHGLIQDYAGGK | not soluble
2 | MAHHHHHHMAQAIRDAFTEEASLTVVEEWSSKVVSDLEARATNAHHARQGVLVKPYTADAAETVPVTIVASLREFQGQLYDIYRAAETIRTVIACRIPELKAEDNLGVEVQMTVLKMIDSLEGKLLGSSSGDKEGGAPGVAGMYAAREYLAARGSVEDKVLGKVSDDDKKTKSAAPSVLMELQQIDADALLKLELSATQISTQIRSFINAYAVNWKKLIQPRTNASEKSIS | soluble
3 | MAHHHHHHMNREQIARRIDLVGPSTGAIVGVATWCALHGAEADAILNYVAEKMKHKDTTDAQRASLVYVIHELLLSCATRGVSENAKRSILKAVSLTLPSAVRDTLRQRASDHTAFLIALQKATEWWGTLNLFPAAWLAKLQCTVQDGQESAGHRTTVPSALMQVANLLQRYQHAKEQWVQNRNIKAEEGRTGSGVASGQDTAAPLAGGGAGASSAVVDDAARRCLIALRKAVESRFERNAAFLAWCEAERAELEGRATTSSADSGVVKMAHGTSPHVPTHSGSGSSYSVKEEGGHSGGPSGEPNDDEDVLGSFFS | soluble
4 | MSPIDEFTYIKQNKIVYDSNSLIQLYFPIMGSDAMALYDYFVHFFDDGIRRHKFSEVLNHLQYGMPRFQDALVMLTALDLLTVYQATGTYLVKLNQAMSNELFLSNPIYRRLLEKRIGEVAVAELDMKIPKNARDISKKFTDVFSDLGQPKQEVNRSKNVFDLESFKRLMMRDGLRFNNEKDDVLGIYSVSELYHLNWYDTYQLAKQTAINGMIAPQRMKVQQNEGQHIKDNQSFTNNEKVILRESKNDSALVFLEKIKRSRKAVTTSGEKTLLEDLAKMNFLDEVINVMVLYTLNKTKSANLNKAYIMKVANDFAFQNVMTAEDAVLKIRDFSDQKVRTKTETKKKQSNVPEWSNPDYKDEVSPEKEIELEQFKTDALKRLERLGKDGES | not soluble
5 | MSLTASYETIKARLDGTVLSATFNAPPMNLIGPEVVRDLVALLEELAHPTAPRVVIFDSADADFFFPHVDMTKVPEYTAEAAKAGGPGDASLGMLFRKLSQLPAVTIAKLRGRARGAGSEFLLACDMRFASRENAILGQPEVGIGAPPGAGAIQHLTRLLGRGRALEAVLTSSDFDADLAERYGWVNRAVPDAELDEFVAGIAARMSGFPRDALIAAKSAINAISLPAPAEVRADAALFQQLVRGEKVQQRTAELFKQGFQTRGATELDLGDALGHLKAVDEGHHHHHH | soluble
6 | MSLENIIARRYAKAIASRADINDFYQNLCILNSAFVLPKFKNIIESNEIKKERKMEFLDSFFDIKNSSFQNFLRLLIENSRLECIPQIVKELERQKAFKENIFVGIVYSKEKLSQENLKDLEVKLNKKFDANIKLNNKISQDDSVKIELEELGYELSFSMKALQNKLNEYILKIEGHHHHHH | not soluble
7 | MRADGFVPLQALLQLPQFHSFSIEDVQLVVNTNEKQRFTLQPGEPSTGLLIRANQGHSLQVPELELTPLETPQALPLTLVHGTFWKHWPSILLKGLSRQGRTHIHLASGLPGDPGVISGIRPNCEVAVFIDGPLALTDGIPFFCSANGVILTPGNAEGFLLPKYFKEALQLRPTRKPLSLAGDKETETQSGPKLSSRGGRRKIQQ | soluble
8 | SLQIKKLFIALGIVLPLHMQGQNFLIKDAPEVIESYVNQFNREDNELYKQDIPNCGASDFLRKNIPFFECPDKELEKTYYFRWWTYRKHIKKTPDGFVITEFLPDVPWSGKYNTISCAANHHFYEGRWLRNAEILSDYASFWFSGSGNPRLYSFGAADAIYNYYLIHNDKMLLADLYPKLKDNFAKWEEEKRDSTGMFWQVDDRDGMEMSVSGHLSEGGRGYRPTINSYMYGEAVALAKIASIVDRDMEARTYQKKADKLKGIINRRLWDKQADFYKVIPLNGKMEFSYARELLGYIPWFYNIPPDNYSIAWKQLFDSKGFEAAYGPTTVEQRCPDFKISYEGHECQWNGPSWPYLTSMTLAAMANYFNSYDSPIITKKDYLSLLNIYSNSHRILSVNNDTICWIDENINPYTGDWISRTRLKSWKNGTWDDSKGGVERGKDYNHSSFCNLIISGLMGVRPQEDGSIIINPLVPDGCWDYFCLDNVYCQGKTITIIFDKKGKKYGRGKGFIVYVDDKCLSHTTRVQKVVIR | not soluble
9 | MLIPSKLSRPVRLEHTVVRERLLAKLSGANNYRLVLITSPAGYGKTTLISQWAAGKNDLGWFSLDEGDNQQERFASYLIAAIQQATGNHCAASEAMVQKRQYASLSSLFAQLFIELADWQRPLYLVIDDYHLINNPVIHDAMRFFLRHQPENMTLVVLSRNLPQLGIANLRVRDQLLEIGSQQLAFTHQEAKQFFDCRLTSPIEADDSSRLCDDVAGWATALQLIALSARQNNSSAQHSARRFAGINASHLSDYLVDEVLDNVDARTRNFLLKSSLLRSMNDALIVRVTGEENGQMQLEEIERQGLFLQRMDDSGEWFRYHPLFGSFLRQRCQWELAVELPEIHRAAAESWMAQGFPSEAIHHALAAGDAKMLRDILLNHAWGMFNHSELGLLEQSLAALPWSNLLENPRLILLQAWLMQSQHRYSEVNTLLARAEQEMSVEMDTAMHGDFNALRAQVAINDGDQDEAERLSMVALEELPLANYYSRIVATSVHGEVLHCKGKLTKSLAVMQQTEQMARRHDVWHYALWSIIQQSEILFAQGFLQAAW | not soluble
10 | MEIDKEILKRCKKYDRASFSQLFHLYEKYLYNLCYGYTQNTSDAMDLVQEIYIKVFKNIKNFDENLPFHPWVRKISVNTCLNFKRDNRGNVMSLNSKYYDSEFEEEDRLAEDYNMEQEVVNRINNEVVKESIKKLTYDYRMVIMLRYYEDLSYDEIASVLDMPIGTVKTKIYRAKNVLKKSLEKKLEVKK | not soluble
11 | VLRSKSLCHDEIENLLDSDHRELIGDYSKAFLLQTVDGKHQDLKYISPETMVALLTGKFSNIVDKFVIVDCRYPYEYEGGHIKTAVNLPLERDAESFLLKSPIAPCSLDKRVILIFHCEFSSERGPRMCRFIRERDRAVNDYPSLYYPEMYILKGGYKEFFPQHPNFCEPQDYRPMNHEAFKDELKTFRLKTRSWAGERSRRELCSRLQDQ | soluble
12 | MAHHHHHHMTGSNGNDEPFKREMRTVKVPHHRFPALKKVWMDVYTPIVEQCKLEIRMNLRGRSVELRTCPATVEAAGNEGSKALLQKAEDFVKAVVAGFDVKDAVALLRMDDVYIEGFEVKDVRANLQGDNLSRCIGRMSGSHGKTKHTIENVTRTRIVIADTHICIMGTTQNIRVARDALCDLIRGSPATKVYTRVRAVMNRVNDTF | soluble
13 | MMKKIKILSLLVCLIALFTACHDEEDKTNYGSRTVLVYIAGDNSLSRFASEDLNEMIEGMQSVDDNHNNLLVYMDKGSNPKLIRLRKDKDVVVQDVIATYDAQNSVDVDVMKNVFTTAFSHYPADSYGVVFWSHGDGWLPYNNPSTRWWGQDTGNGDNRMNIPDLNEALSVAPHFDFILFDACYMQSVEVVYQLRNRADYFIGSPTEIPGPGAPYEVVVPALFAVNSPAVSIAENYYSVYAKKYNSTGAGISNENWTGGVSISVIKSSELSALAAATRDVLQTAVSMQQSHNIDISSILCYDPLRENNYHDLMGLMQSIQGNSQAFNHYKEMYKNAVIWKNTTDNNYCTYSSGYGKMVSMDGFEGVSTYILRENNSSQEKYYRQFVEWYSAADWDSVDWLEHHHHHH | not soluble
14 | MAHHHHHHMSSDYSRVCAAEKASESHPPGYSRDALETELREGFRKQQQQVNKNRQVEQMALAKGLGESATTSLKDGFYIPHKVLPPLKPEEKKLFERIDIMKWCGRAGRKLEDSAVAPPPTLGEVPAEHQPMQVQEHQASTEADAEDALSTSVSSTASSLAALKDNSSEDVRHLLHQLRSTSRATSSLRDARAEVDDNIQAVEEALLRQSSPLSFEDLLDTAARLLAAMERGELTEDVVVPRGADVSTEKDEGSPGSPADSAEAPLSASGSTTRVLHGAVEVETYTRKHLLPRAYQVVAIAHTAEWILQYTMAYLRTTVAVNQDEAFTRLTLLARCVRLLGDIENFSSILLSLETKCEEYAGFAALKDTAEKHLGTLLDDVETSLDAILSAPFPSRRSRLLLLEGGIQKKLQRALLFLNEIDYSWTPHVRFHWAWKVQLLSASFHRIHGLISRKHMQCSMGFVDDSLYERVADTRITGRYMGASPVQPKVLRAQQVEYEKITEGLTFQQIGMSIKGVASLLIGEQLCMGARYILCQSTKQFDPVWGFHMDEISTAPTQEELSAMAAKIAVHAKEQLTARPTIARKEHSSSTFLTQM | not soluble
15 | MKYFMGPHVWQRTIADLEALGHQRVDTFEQAEAYINTEPRPLRIPTIPESVGFVQHCFTGVNQLIDAHVITETGVRWANMAGGFAQPVAESALGLMLSQAHHHKAFALAGTWRVARELDRIQQWLHSVGEPRCVVIFGAGGIAKELIRLLEPFGMHVIAVNRSGRSVAGADETFAMKDAQGLWSRGDFIVNILPLTQETKGLVDRDVFAQMKPSAIFINVGRGATVVTDDLVDALQRGVIAGAGLEVVDPEPLPDSHALHSMPNCTITPHMAASDHVAELHVARIFDANAQAFTRGETMPTEVNPHLGY | not soluble
16 | MSICLIAEEGADSGALSSLAERWGLVSDPNAVMALVLTTERLELRKQDEPKLGAIFVDFVAGPMAHRRRFGGGRGEAVAKAVGIKKDYLPDVVDATAGLGRDAFVLAALGCHVRMVERNPVVAALLDDGLKRGYQDAEIGPWLRERLTLLHASSMTALRDITPPPDVVYLDPMFPHKQKSALVKKEMRVFQSLVGADDDADALLEPARALAKKRVVVKRPDYAPPLAGVPAQSMLETKSHRFDFYLPVLEHHHHHH | soluble
17 | MGSDKIHHHHHHMAFTPFPPRQPTASARLPLTLMTLDDWALATITGADSEKYMQGQVTADVSQMAEDQHLLAAHCDAKGKMWSNLRLFRDGDGFAWIERRSVREPQLTELKKYAVFSKVTIAPDDERVLLGVAGFQARAALANLFSELPSKEKQVVKEGATTLLWFEHPAERFLIVTDEATANMLTDKLRGEAELNNSQQWLALNIEAGFPVIDAANSGQFIPQATNLQALGGISFKKGCYTGQEMVARAKFRGANKRALWLLAGSASRLPEAGEDLELKMGENWRRTGTVLAAVKLEDGQVVVQVVMNNDMEPDSIFRVRDDANTLHIEPLPYSLEE | soluble
18 | MPDSILEAARGGRTMQKYSEMSKEQLQAVKKELDQQYAEIKAQGLALDMSRGKPSVDQLNISMDMMDVLSSSTDLRCETGVDCRNYGVMDGIPEAKRLLGEISEVDPEHIIIYGNSSLNVMFDTVSRSMTHGVMGNTPWCKLDKVKFLCPVPGYDRHFKITEFFGIEMINVPMSPEGPDMDMVEKLVSEDPAIKGIWCVPKYSNPQGYTYSEETVKRFANLKPAAPDFRIYWDNAYSVHHLYDDEKDQDFLLEILDECAKAGNPDMVYKFTSTSKISFPGSGIAALAASKANLDDIRKYITVQTIGHDKLNQLRHVKFFKDLEGVHAHMRKHAAILRPKFEMVEATLEKELGGLGIGEWTTPKGGYFISFESLDGCAKKIVAMAKEAGVVMTGAGATYPYGKDPKDSNIRIAPSFPPIEELEKAAQVFVVCVKLASVEKLLAE | not soluble
19 | MKKTHVTIGLSNPKSPTNVGAVMRAAGCYQVDDVRYTGERYDRAAKFQTDTKKVASKIPLTSVNCLLDDLPEDMKVVCVELAEGAVSLPQFQHPDKAIYVFGPEDGSITQQVADRADHVVYVPTVGCMNLAATVNVLLYDRLAK | not soluble
